Assay [1] concerns the target Bcat-Halo (UniProt P35222). Nature of the assay: NanoBRET Abs IC50 in HEK293 cells; competitor TCF4-Luc on Bcat-Halo. For orientation: BRET reads energy transfer from a luciferase to a nearby fluorophore.
For assay [2], the target named is full-length beta-Catenin (Uniprot ID P35222) (Homo sapiens (Human)) (UniProt P35222). Nature of the assay: fluorescence polarization competition vs 5FAM-TCF4(10-53) on full-length beta-catenin. (Fluorescence polarisation rises when a labelled molecule tumbles more slowly, as on binding a larger partner.)
Target sequence in this assay (P35222 2-781 limits assumed): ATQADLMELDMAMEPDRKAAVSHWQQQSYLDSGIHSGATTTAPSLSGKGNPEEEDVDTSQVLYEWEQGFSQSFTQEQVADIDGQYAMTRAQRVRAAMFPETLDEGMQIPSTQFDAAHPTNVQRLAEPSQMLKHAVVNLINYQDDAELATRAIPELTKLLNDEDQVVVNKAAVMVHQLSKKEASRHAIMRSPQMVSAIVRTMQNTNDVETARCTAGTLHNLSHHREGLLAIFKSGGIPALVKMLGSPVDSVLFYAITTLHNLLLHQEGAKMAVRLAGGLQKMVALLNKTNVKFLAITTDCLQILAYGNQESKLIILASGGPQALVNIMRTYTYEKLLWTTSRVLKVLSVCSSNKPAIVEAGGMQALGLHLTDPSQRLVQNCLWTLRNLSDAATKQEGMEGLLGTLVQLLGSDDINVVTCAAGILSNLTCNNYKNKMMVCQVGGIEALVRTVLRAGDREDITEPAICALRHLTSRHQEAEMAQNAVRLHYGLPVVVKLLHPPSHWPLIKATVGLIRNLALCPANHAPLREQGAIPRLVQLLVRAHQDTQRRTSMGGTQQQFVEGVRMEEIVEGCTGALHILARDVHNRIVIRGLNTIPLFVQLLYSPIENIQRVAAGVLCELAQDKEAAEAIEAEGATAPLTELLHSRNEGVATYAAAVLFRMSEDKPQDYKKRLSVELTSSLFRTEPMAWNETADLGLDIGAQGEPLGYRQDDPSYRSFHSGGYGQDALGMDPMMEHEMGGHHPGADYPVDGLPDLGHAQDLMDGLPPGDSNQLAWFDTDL
The target is the same in assay [3]. Nature of the assay: fluorescence polarization competition, 5FAM-TCF4 10-53 probe on full-length beta-catenin.
Target sequence in this assay (P35222 2-781 limits assumed): as above
Assay [4] shares this target. Nature of the assay: FP competition; full-length beta-catenin + 5FAM-TCF4(10-53) probe.
Target sequence in this assay (P35222 whole entry, one chain of several): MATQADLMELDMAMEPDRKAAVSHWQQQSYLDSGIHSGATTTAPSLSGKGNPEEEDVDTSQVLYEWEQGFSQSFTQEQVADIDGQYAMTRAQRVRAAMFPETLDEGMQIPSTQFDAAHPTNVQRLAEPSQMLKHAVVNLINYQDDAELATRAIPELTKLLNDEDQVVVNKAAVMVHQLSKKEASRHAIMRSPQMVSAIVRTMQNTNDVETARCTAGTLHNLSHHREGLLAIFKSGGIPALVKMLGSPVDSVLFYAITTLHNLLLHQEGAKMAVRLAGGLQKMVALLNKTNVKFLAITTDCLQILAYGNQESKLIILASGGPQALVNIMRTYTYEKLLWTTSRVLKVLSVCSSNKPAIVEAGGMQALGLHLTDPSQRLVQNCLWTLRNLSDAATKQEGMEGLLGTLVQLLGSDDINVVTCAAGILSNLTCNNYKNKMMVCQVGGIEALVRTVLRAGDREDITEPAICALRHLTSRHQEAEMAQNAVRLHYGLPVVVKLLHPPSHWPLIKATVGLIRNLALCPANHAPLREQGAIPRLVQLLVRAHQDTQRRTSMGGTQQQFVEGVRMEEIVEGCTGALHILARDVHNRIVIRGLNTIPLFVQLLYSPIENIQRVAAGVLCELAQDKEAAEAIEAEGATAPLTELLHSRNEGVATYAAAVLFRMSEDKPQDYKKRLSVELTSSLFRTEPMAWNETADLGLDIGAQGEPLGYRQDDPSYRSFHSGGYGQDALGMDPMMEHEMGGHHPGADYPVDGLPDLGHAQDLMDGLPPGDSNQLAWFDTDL

Starred links: 1 amine or outer side, 2 acyl side, 3 side chain; linkers in the order of their positions; H or OH if unused. Positions of bridges follow the written chain, without caps; N, C: chain ends. Non-standard residues stand in square brackets, D forms with d. Primed or numbered codes have the meaning given here. PyrS2″ = (S)-3-amino-1-((pent-4-en-1-yloxy)carbonyl)pyrrolidine-3-carboxylic acid (stapling residue), C=CCCCOC(=O)N1CC[C@@](N[*:1])(C(=O)[*:2])C1; B5(24) = 2-amino-2-(pent-4-en-1-yl)hept-6-enoic acid, 2,2-bis(4-pentenyl)glycine (stitching residue), C=CCCCC(CCCC=C)(N[*:1])C(=O)[*:2]; B5(4) = 2,2-bis(4-pentenyl)glycine = 2-amino-2-(pent-4-en-1-yl)hept-6-enoic acid (stitching residue), C=CCCCC(CCCC=C)(N[*:1])C(=O)[*:2]; B5(5) = 2,2-bis(4-pentenyl)glycine, 2-amino-2-(pent-4-en-1-yl)hept-6-enoic acid (stitching residue), C=CCCCC(CCCC=C)(N[*:1])C(=O)[*:2]; Phe(3-COOH) = N[C@@H](Cc1cccc(C(=O)O)c1)C(=O)O; Phe(2-Cl) = N[C@@H](Cc1ccccc1Cl)C(=O)O; Bta = N[C@@H](Cc1csc2ccccc12)C(=O)O; αAllylPro = C=CC[C@@]1(C(=O)O)CCCN1; tBuAla = CC(C)(C)C[C@H](N)C(=O)O; 3Thi = N[C@@H](Cc1ccsc1)C(=O)O; Cha = N[C@@H](CC1CCCCC1)C(=O)O

Bcat-Halo, sequence (P35222 whole entry): as the sequence (P35222 whole entry, one chain of several) above

B1: I-1140 (peptide)
peptide: Ac-[αAllylPro]D[Cha][B5(4)]DDAAFL[PyrS2″][Phe(2-Cl)][Bta][dT]-NH2
modifications: staple 1-4, 4-11
As to B1, the IC50 (commonly the midpoint of a concentration-inhibition curve) in assay [1] is 32500 nM; in assay [2], 33 nM. The EC50 – broadly, the concentration needed to bring the measured effect to its halfway point – in assay [3] was determined as 33 nM.

B2: I-1139 (peptide)
peptide: Ac-[αAllylPro]D[Cha][B5(4)]DDAAFL[PyrS2″][Phe(2-Cl)][Bta]T-NH2
modifications: staple 1-4, 4-11
With B2, the IC50 was 18000 nM in assay [1] and 22 nM in assay [2]. The EC50 in assay [3] stood at 22 nM.

B3: I-1151 (peptide)
peptide: Ac-[αAllylPro]D[Cha][B5(4)]DDALFT[PyrS2″][Phe(2-Cl)][Bta]S-NH2
modifications: staple 1-4, 4-11
In the case of B3, the figures for the IC50 in assay [1] and in assay [2] were 25300 nM and 30 nM, respectively. This molecule showed an EC50 in assay [3] of 30 nM.

B4: I-2016 (peptide)
peptide: Ac-[αAllylPro]D[tBuAla][B5(4)]NTAAYN[PyrS2″][3Thi][Bta]Q-NH2
modifications: staple 1-4, 4-11; not fully specified; printed as Ac-PL3-Asp-Npg-B5-Asn-Thr-Ala-Ala-Tyr-Asn-PyrS2-3Thi-BztA-Gln-NH2
Regarding B4, in assay [4], the IC50 is 703 nM.

B5: I-1147 (peptide)
peptide: Ac-[αAllylPro]D[Cha][B5(4)]DDLAFS[PyrS2″][Phe(2-Cl)][Bta]Q-NH2
modifications: staple 1-4, 4-11
Take B5: the IC50 amounted to 21100 nM in assay [1] and 10 nM in assay [2]. For the same molecule, in assay [3], the EC50 amounted to 10 nM.

B6: I-1152 (peptide)
peptide: Ac-[αAllylPro]D[Cha][B5(4)]DDLLFT[PyrS2″][Phe(2-Cl)][Bta]S-NH2
modifications: staple 1-4, 4-11
For B6, the IC50 was determined as 14200 nM in assay [1] and 65 nM in assay [2]. This molecule also yielded an EC50 in assay [3] of 65 nM.

B7: I-2025 (peptide)
peptide: Ac-[αAllylPro]D[tBuAla][B5(5)]D[Phe(3-COOH)]AAFA[PyrS2″][Phe(2-Cl)][Bta]F-NH2
modifications: staple 1-4, 4-11
With B7, the IC50 in assay [4] turned out to be 109 nM.

B8: I-1148 (peptide)
peptide: Ac-[αAllylPro]D[Cha][B5(4)]DDALFS[PyrS2″][Phe(2-Cl)][Bta]Q-NH2
modifications: staple 1-4, 4-11
Regarding B8, the values for the IC50 in assay [1] and in assay [2] were 21500 nM and 50 nM, respectively. In assay [3], this molecule came in with an EC50 of 50 nM.

B9: I-2015 (peptide)
peptide: Ac-[αAllylPro]D[tBuAla][B5(4)]NTAAYN[PyrS2″][3Thi][Bta]Q-NH2
modifications: staple 1-4, 4-11; not fully specified; printed as Ac-PL3-Asp-Npg-B5-Asn-Thr-Ala-Ala-Tyr-Asn-PyrS2-3Thi-BztA-Gln-NH2
Regarding B9, the IC50 in assay [4] was 522 nM.

B10: I-1150 (peptide)
peptide: Ac-[αAllylPro]D[Cha][B5(4)]DDLAFT[PyrS2″][Phe(2-Cl)][Bta]S-NH2
modifications: staple 1-4, 4-11
On to B10, for which the IC50 in assay [1] is 21400 nM; in assay [2], 12 nM. Further, the EC50 in assay [3] worked out at 12 nM.

B11: I-1138 (peptide)
peptide: Ac-[αAllylPro]D[Cha][B5(4)]DDAAFS[PyrS2″][Phe(2-Cl)][Bta]L-NH2
modifications: staple 1-4, 4-11
For B11, the IC50 in assay [1] was found to be 19800 nM; in assay [2] it was 18 nM. In assay [3], this molecule displayed an EC50 of 18 nM.

The record behind these values is patent US20240116985A1, “STAPLED PEPTIDES AND METHODS THEREOF” (priority 2020, published 2024).
